Here are results for two molecules from US20160326532A1 (MAYO FOUNDATION FOR MEDICAL EDUCATION AND RESEARCH, published 2016).

The target of one assay is T1, HIF-1α, endogenous (UniProt Q16665 1-826).
T1 construct: also called HIF-1alpha; hypoxia-inducible factor 1 alpha
In words: co-immunoprecipitation of endogenous proteins from HEK 293T cell extracts (FIG. 8A). As for the experimental part:
To study endogenous WSB1/pVHL binding, cells were treated with or without 10 μM MG 132 (Sigma) for 2 hours. Cells were lysed by sonication in NETN buffer (20 mM Tris-HCl, pH 8.0, 100 mM NaCl, 1 mM EDTA, 0.5% Nonidet P-40) containing 50 mM b-glycerophosphate, 10 mM NaF, and […] each of pepstatin A and aprotinin, freshly supplemented with protease inhibitor cocktail (Roche). Prior to immunoprecipitation, protein A-bound Agarose beads were incubated overnight with pVHL antibody (Cell Signaling, #2738), WSB1 antibody (Abcam, ab68953; Sigma, HPA003293; Proteintech, 1166-1-AP), or HIF-1α antibody (Abcam, ab51608) in PBS with 5% BSA at 4° C. ab68953 was used for most experiments (HPA003293 for IHC). Extracts were added before immunoprecipitation with protein-A agarose at 4° C. for 4 hours. After three washings in binding buffer, co-purified proteins were analyzed by Western blotting.

The next assay addresses T2, HA-tagged HIF-1α (UniProt Q16665 1-826).
T2 construct: Plasmid from Addgene; also called exogenous HIF-1α; not shown: HA tag
In words: co-immunoprecipitation of exogenous proteins from HEK 293T cell extracts (FIG. 9A).

T2 sequence (Q16665 whole entry): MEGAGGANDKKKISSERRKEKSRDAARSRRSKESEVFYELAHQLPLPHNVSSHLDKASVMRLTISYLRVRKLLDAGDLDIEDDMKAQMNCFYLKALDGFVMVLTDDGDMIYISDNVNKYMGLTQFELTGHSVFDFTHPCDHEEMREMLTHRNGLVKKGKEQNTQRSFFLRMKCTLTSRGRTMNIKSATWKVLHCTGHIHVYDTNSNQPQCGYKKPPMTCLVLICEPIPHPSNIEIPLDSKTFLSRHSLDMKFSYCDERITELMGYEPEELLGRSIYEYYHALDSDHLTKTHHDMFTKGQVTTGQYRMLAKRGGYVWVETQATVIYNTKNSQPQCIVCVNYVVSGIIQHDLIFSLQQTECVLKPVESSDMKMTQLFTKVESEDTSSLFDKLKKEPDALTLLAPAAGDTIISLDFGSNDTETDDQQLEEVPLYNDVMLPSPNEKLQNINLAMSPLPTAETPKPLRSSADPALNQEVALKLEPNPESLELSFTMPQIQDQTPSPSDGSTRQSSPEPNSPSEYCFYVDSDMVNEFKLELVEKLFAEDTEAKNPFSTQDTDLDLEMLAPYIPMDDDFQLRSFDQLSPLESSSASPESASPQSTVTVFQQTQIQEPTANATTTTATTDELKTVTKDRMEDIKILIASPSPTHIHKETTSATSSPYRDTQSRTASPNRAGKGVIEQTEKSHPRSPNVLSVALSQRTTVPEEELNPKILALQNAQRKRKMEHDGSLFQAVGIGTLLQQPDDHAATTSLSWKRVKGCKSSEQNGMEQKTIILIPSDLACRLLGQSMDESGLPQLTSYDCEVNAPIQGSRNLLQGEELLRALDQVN
T1 sequence (Q16665 whole entry): as above

B1: WD repeat and SOCS box-containing protein 1 (WSB1), endogenous (enzyme)
chain: MASFPPRVNEKEIVRLRTIGELLAPAAPFDKKCGRENWTVAFAPDGSYFAWSQGHRTVKLVPWSQCLQNFLLHGTKNVTNSSSLRLPRQNSDGGQKNKPREHIIDCGDIVWSLAFGSSVPEKQSRCVNIEWHRFRFGQDQLLLATGLNNGRIKIWDVYTGKLLLNLVDHTEVVRDLTFAPDGSLILVSASRDKTLRVWDLKDDGNMMKVLRGHQNWVYSCAFSPDSSMLCSVGASKAVFLWNMDKYTMIRKLEGHHHDVVACDFSPDGALLATASYDTRVYIWDPHNGDILMEFGHLFPPPTPIFAGGANDRWVRSVSFSHDGLHVASLADDKMVRFWRIDEDYPVQVAPLSNGLCCAFSTDGSVLAAGTHDGSVYFWATPRQVPSLQHLCRMSIRRVMPTQEVQELPIPSKLLEFLSYRI
notes: also called WBS1
Turning to B1, the binding result with HIF-1α, endogenous is recorded as “no binding”.

B2: Myc-tagged WSB1 (WT) (enzyme)
chain: MASFPPRVNEKEIVRLRTIGELLAPAAPFDKKCGRENWTVAFAPDGSYFAWSQGHRTVKLVPWSQCLQNFLLHGTKNVTNSSSLRLPRQNSDGGQKNKPREHIIDCGDIVWSLAFGSSVPEKQSRCVNIEWHRFRFGQDQLLLATGLNNGRIKIWDVYTGKLLLNLVDHTEVVRDLTFAPDGSLILVSASRDKTLRVWDLKDDGNMMKVLRGHQNWVYSCAFSPDSSMLCSVGASKAVFLWNMDKYTMIRKLEGHHHDVVACDFSPDGALLATASYDTRVYIWDPHNGDILMEFGHLFPPPTPIFAGGANDRWVRSVSFSHDGLHVASLADDKMVRFWRIDEDYPVQVAPLSNGLCCAFSTDGSVLAAGTHDGSVYFWATPRQVPSLQHLCRMSIRRVMPTQEVQELPIPSKLLEFLSYRI
notes: Plasmid obtained from Dr. Cheol Yong Choi; also called Myc-WSB1; WSB1-Myc; not shown: Myc tag
Regarding B2, in the assay with HA-tagged HIF-1α, the binding result is recorded as “no binding”.
